Where a chain is given by its changes, count along the chain named.
T1: MR-proADM (human)
T1 chain: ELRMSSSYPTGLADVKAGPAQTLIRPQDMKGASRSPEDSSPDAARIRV

B1: Ab3 (antibody, V domains shown)
VH: EVQLQQSGPELVRPGASVKISCKASGYSFTDYFMHWMKQSHVKSLEWIGRLNPYNGATNYNQNFKDKATLTVDKSSSTAYMELHSLTSEDSAVYYCLSFTTPPEAYWGQGTLVTVSA
VL: EIVMTQAAFSNPVTLGTSASISCRSNKSLLYSNGITYLFWYLQRPGQSPQLLIYQMSNLASGVPDRFSGSGSGTDFTLRISRVEAEDVGVYYCAQNLELPWTFGGGTKLEIK
B2: Ab2 (antibody, V domains shown)
VH: QIQLVQSGPELRKPGETVKISCKASGYTFTDYSMHWVKQVPGKVLKWMGWINTETGEPTYVDDFKGRFAFSLETSASTAYLRINILKNEDAATYFCATNFDYWGQGTTLTVSS
VL: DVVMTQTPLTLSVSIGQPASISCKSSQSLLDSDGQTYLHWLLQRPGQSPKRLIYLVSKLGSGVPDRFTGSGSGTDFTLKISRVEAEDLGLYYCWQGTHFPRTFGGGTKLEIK
B3: Ab5 (antibody, V domains shown)
VH: EVQLQQSGPELVKPGASVKISCKASGYSFTDYYMHWVKQSHVKSLEWIGRINPYNGATKYNQNFKDKASLTVDKSSSTAYMELHSLTSEDSAVYYCTRRYDNDDGDYWGQGTTLRVSS
VL: B1 VL with E1D, N26S, F39Y, R44K, G69S

Assays:
MR-proADM [1] = molecular target: T1, MR-proADM; assay: SPR, antigen 1
MR-proADM [2] = molecular target: T1, MR-proADM; assay: SPR, antigen 2
MR-proADM [3] = molecular target: T1, MR-proADM; assay: SPR, 25C pH 7.4, Ab 3-a
MR-proADM [4] = molecular target: T1, MR-proADM; assay: SPR, 25C pH 7.4, Ab 3-d
MR-proADM [5] = molecular target: T1, MR-proADM; assay: SPR, 25C pH 7.4, Ab 3-b
MR-proADM [6] = molecular target: T1, MR-proADM; assay: SPR, 25C pH 7.4, Ab 3-c
MR-proADM [7] = molecular target: T1, MR-proADM; assay: SPR, 25C pH 7.4, Ab 2-b
MR-proADM [8] = molecular target: T1, MR-proADM; assay: SPR, 25C pH 7.4, Ab 2-a
MR-proADM [9] = molecular target: T1, MR-proADM; assay: SPR, 25C pH 7.4, Ab 2-c
MR-proADM [10] = molecular target: T1, MR-proADM; assay: SPR, 25C pH 7.4

| Binder | Kd (MR-proADM [1]) [nM] | Kd (MR-proADM [2]) [nM] | Kd (MR-proADM [3]) [nM] | Kd (MR-proADM [4]) [nM] | Kd (MR-proADM [5]) [nM] | Kd (MR-proADM [6]) [nM] | Kd (MR-proADM [7]) [nM] | Kd (MR-proADM [8]) [nM] | Kd (MR-proADM [9]) [nM] | Kd (MR-proADM [10]) [nM] |
| --- | --- | --- | --- | --- | --- | --- | --- | --- | --- | --- |
| B1 | 13.9 | 17.4 | 14.8 | 20.1 | 17.1 | 18.8 |  |  |  |  |
| B2 | 2.49 | 2.57 |  |  |  |  | 3.02 | 2.97 | 2.82 |  |
| B3 | 6.47 | 101 |  |  |  |  |  |  |  | 247 |
